In EP3583122A1:
Substitutions are numbered along the chain they refer to. In names and notes the source's numbering stands. Like-named read-outs stand apart in the source and are kept apart here.

Columns and labels:
[1] = molecular target: EBOV GP[change] (Ebola virus) (UniProt Q05320)
[2] = molecular target: EBOV GP[change] (Ebola virus) (UniProt Q05320); remark: listed apart in the source
[3] = molecular target: EBOV GP[change] (Ebola virus) (UniProt Q05320); remark: listed apart in the source
[4] = molecular target: EBOV GP[change] (Ebola virus) (UniProt Q05320); remark: listed apart in the source
[5] = molecular target: EBOV GP[change] (Ebola virus) (UniProt Q05320); remark: listed apart in the source
[6] = molecular target: EBOV GP[change] (Ebola virus) (UniProt Q05320); remark: listed apart in the source
[7] = molecular target: EBOV GP[change] (Ebola virus) (UniProt Q05320); remark: listed apart in the source
[8] = molecular target: EBOV GP[change] (Ebola virus) (UniProt Q05320); remark: listed apart in the source
[9] = molecular target: EBOV GP[change] (Ebola virus) (UniProt Q05320); remark: listed apart in the source
[10] = molecular target: EBOV GP[change] (Ebola virus) (UniProt Q05320); remark: listed apart in the source
[11] = molecular target: EBOV GP[change] (Ebola virus) (UniProt Q05320); remark: listed apart in the source

Chain of EBOV GP[change] (Ebola virus) (Q05320 33-501, chain 1 of 2): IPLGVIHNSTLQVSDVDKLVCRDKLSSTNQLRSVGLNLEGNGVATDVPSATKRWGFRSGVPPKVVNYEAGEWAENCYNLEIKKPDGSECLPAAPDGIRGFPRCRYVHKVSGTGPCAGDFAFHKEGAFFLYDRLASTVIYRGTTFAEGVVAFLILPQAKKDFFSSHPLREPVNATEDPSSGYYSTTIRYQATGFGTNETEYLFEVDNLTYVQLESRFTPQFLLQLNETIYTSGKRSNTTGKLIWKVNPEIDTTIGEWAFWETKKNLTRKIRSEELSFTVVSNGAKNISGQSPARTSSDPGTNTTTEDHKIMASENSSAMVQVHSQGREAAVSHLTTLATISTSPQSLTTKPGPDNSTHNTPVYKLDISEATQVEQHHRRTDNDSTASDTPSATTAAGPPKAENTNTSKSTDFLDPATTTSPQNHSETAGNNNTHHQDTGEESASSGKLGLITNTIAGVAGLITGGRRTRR
Chain of EBOV GP[change] (Ebola virus) (Q05320 502-650, chain 2 of 2): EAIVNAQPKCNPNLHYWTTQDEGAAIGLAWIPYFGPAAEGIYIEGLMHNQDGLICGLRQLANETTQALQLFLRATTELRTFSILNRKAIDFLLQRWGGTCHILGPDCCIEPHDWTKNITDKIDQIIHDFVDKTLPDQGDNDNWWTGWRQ

B1: PE-87 H108A (antibody, V domains shown)
VH: QVQLVQSGVTLVQPGGSLRVSCAASGFTFSSYAMSWVRQAPGKGLEWVSAISGLGGSTYYADSVKGRFTISRDNSKNTLYLQMNSLRAEDTAVYYCAKDHRVWAAGYAFDYWGQGALVTVSS
VL: DIVLTQSPSTLSASVGDRVTITCRASQSISSWLAWYQQKPGEAPKLLISDASSLESGVPSRFSGSGSGTEFTLTISSLQPDDFATYYCQQYYSSPTFGGGTKVEIK
[1]
  Kd: 18 nM

B2: PE-87 R101A (antibody, V domains shown)
VH: B1 VH with R101A, A108H
VL: B1 VL
[2]
  Kd: 9.4 nM

B3: PE-87 D99A (antibody, V domains shown)
VH: B1 VH with D99A, A108H
VL: B1 VL
[3]
  Kd: 74 nM

B4: PE-87 G106A (antibody, V domains shown)
VH: B1 VH with G106A, A108H
VL: B1 VL
[4]
  Kd: 0.03 nM

B5: PE-87 D110A (antibody, V domains shown)
VH: B1 VH with A108H, D110A
VL: B1 VL
[5]
  Kd: 1.3 nM

B6: PE-87 W103A (antibody, V domains shown)
VH: B1 VH with W103A, A108H
VL: B1 VL
[6]
  Kd: 1.3 nM

B7: PE-87 V102A (antibody, V domains shown)
VH: B1 VH with V102A, A108H
VL: B1 VL
[7]
  Kd: 4 nM

B8: PE-87 H100A (antibody, V domains shown)
VH: B1 VH with H100A, A108H
VL: B1 VL
[8]
  Kd: 4.5 nM

B9: PE-87 Y107A (antibody, V domains shown)
VH: B1 VH with Y107A, A108H
VL: B1 VL
[9]
  Kd: 30 nM

B10: PE-87 Y111A (antibody, V domains shown)
VH: B1 VH with A108H, Y111A
VL: B1 VL
[10]
  Kd: 5.9 nM

B11: PE-87 F109A (antibody, V domains shown)
VH: B1 VH with A108H, F109A
VL: B1 VL
[11]
  Kd: 37 nM
